Two molecules from patent US12053511B2, “Cystatin C and Cystatin 9 to treat gut inflammation caused by thermal injury” (priority 2016, dated 2024) can be followed below.

Values joined by “and” are separate entries in the source; they are usually repeats but may differ in a detail not shown here. Equal values may be shown once.

One assay concerns gut microbiome. Briefly: Gut microbiome in gavaged mice given 30% full-thickness burn. The class given is in vivo, Balb/c mice. Particulars: gavage 50 pg/mouse, then 30% full-thickness burn. From the text:
(§1) It is known that intestinal leakage of intestinal bacteria and their product occurs following burn injury likely contributing to systemic infection and sepsis.

The subject of assay [1] is monocyte-derived macrophages (MDM) infected with NDM-1-producing Kp. In words: Cytokine secretion from NDM-1 Kp-infected MDM. The class given is cell-based, human. Particulars: rCSTC 50 pg, rCST9 25 or 50 pg, individually and in combination; vs Kp-infected MDM.
Assay [2] relates to NDM-1 Kp. In words: LD90 NDM-1 Kp pneumonia murine model, survival. Particulars: for increased survival of Kp infected mice: single i.p. dose, 50 pg/mouse. In kind it is in vivo, Balb/c mice. From the text: To establish the optimal CST route, timing, and dosage regimen against MDR NDM-1 Kp-induced pneumonia, Balb/c mice (n=10-20 mice/gp) were infected with an i.n. LD90 and treated at various times and doses as depicted in Table 1. Doses included i.n. and/or i.p. single rCST9, rCSTC or a combination of rCST9 and rCSTC. Mice that were infected with NDM-1 Kp but were not treated served as controls. rCST treatments by routes, doses, or as a combined therapy were studied to select an optimal regimen.
Evaluate optimal timing and dosage of rCST-9 and/or PEG-rCST9 administration post-infection. Balb/c mice (n=10-20 mice/gp) were intranasally (i.n.) infected with approximately 1.82×10^8 CFU/mouse of Kp 2146 (as established hereinabove) then treated i.n. or i.p. with rCST9, human recombinant cystatin C (rCSTC) or a combination of rCST9 and rCSTC as depicted in Table 1. Kp infected alone served as controls. […] Therefore, as a comparative control to rCST9, the inventors evaluated the effectiveness of rCSTC against pneumonia using the same doses of 50 and/or 500 pg/mouse.
The potential for rCST9/rCSTC treatment to extend the period before successful antibiotic intervention was initiated was determined. For these evaluations, suboptimal doses of colistin were used to determine the extent of protection afforded by rCSTs as well as to minimize side effects/toxicity caused by this antibiotic (n=10 mice/gp). Doses, timing, and route of colistin were chosen based on efficacy studies of colistin in a mouse model of severe, established MDR pneumonia or a very low dose of colistin then adjusted to suboptimal levels for this study. LD90 NDM-1 Kp-challenged mice were treated with the rCST9/rCSTC 3 d i.p. treatment and then given 2 doses of colistin at 20 mg/kg/day or 1.25 mg/kg/day on day 4 and 5 PI.
Mouse model of pneumonia and CST treatments. Eight-week old female Balb/c mice weighing between 21 and 24 grams (Jackson Laboratories) were housed in an Association for Assessment and Accreditation for Laboratory Animal Care (AAALAC)-approved housing facility and permitted to adjust to their environment for 7 d prior to procedures, receiving free access to food and water throughout the study. All procedures were approved by the University of Texas Medical Branch IACUC and performed humanely with minimal suffering. […] One hour PI, mice were administered an i.n. dose of rCST9/rCSTC (50 pg of each) and then, this group of mice was given an i.p. injection of rCST9/rCSTC (500 pg of each) 3 d PI. A parallel group of infected mice received only a single i.p. dose of rCST9/rCSTC, PEG-rCST9/rCSTC (500 pg of each), or PEG-rCST9 (500 pg) alone 3 d PI. NDM-1-Kp infected mice alone or uninfected mice served as controls. Survival was observed up to 15 days post treatment. Additional groups (n=4 mice/group) of infected and CST-treated mice were euthanized at selected time points (24 h, 72 h, 5 and/or 10 d PI) to harvest lungs. Additional groups were treated with i.n. rCSTs (50 pg of each) as described above but they were euthanized at 30 min, 1 h and 3 h to collect lungs for the quantification of lipid peroxidase by-product, known as malondialdehyde (MDA), as described below.
Additional groups of mice (n=15 mice/group) were treated with the optimal CST treatment regimens of an i.n. dose of rCST9/rCSTC (50 pg of each), followed by an i.p. injection of rCST9/rCSTC (500 pg of each) 3 d PI or the single i.p. dose of rCST9/rCSTC (500 pg of each). At 4 d PI, mice were given 2 separate i.p. injections of colistin (JHP Pharmaceuticals, LLC; colistimethate sodium; 20 mg/kg/mouse or 1.25 mg/kg/day) 8 h apart for 2 d.

The test system of another assay is MIP-1 and IL-8. Briefly: Systemic cytokines in gavaged mice given 30% full-thickness burn. In kind it is in vivo, Balb/c mice. Particulars: gavage 50 pg/mouse, then 30% full-thickness burn; specifically in the lungs.
Description: as §1

Assay [3] deals with NDM-1 Kp. In words: In vitro bacteria viability and growth assay. In kind it is cell-based, Klebsiella pneumoniae BAA-2146. Particulars: given individually and in combination. From the text: Anti-microbial activity of rCST9/rCSTC against NDM-1 Kp. […] To address this directly, PrestoBlue® was used to determine the viability of rCST9/rCSTC-treated NDM-1 Kp based in the reagents rapid reduction by metabolically active bacteria. […] The most substantial decrease in bacterial growth occurred with 50, 500, and 1000 pg of rCSTs compared to lower doses of 10 and 25 pg of rCSTs (FIGS. 7A-C).
Bacteria preparation. The MDR New Delhi metallo-beta-lactamase-1 (NDM-1) producing Klebsiella pneumoniae BAA-2146™ was purchased from ATCC and expanded for 18 hours in 10 mL of brain heart infusion (BHI) broth while shaking at 37° C. The overnight culture was pelleted by centrifugation and then suspended in PBS. Serial dilutions were performed to obtain the desired concentration. Ten-fold dilutions were plated on BHI agar to confirm experimental dosage.
In vitro bacteria viability and growth assay. As a measure of NDM-1 Kp viability, aliquots were treated with Prestoblue® cell viability reagent (Invivogen) following exposure to CSTs. […] Following incubation, […] of Prestoblue® reagent was added to each sample and incubated for 1 h before quantification of cell viability via absorbance at 570-600 nm measurement (Bio-Tek; Epoch Model). […] Additionally, 100 μL of cultures were plated on BHI plates to quantify colony-forming units (CFU) following an overnight incubation at 37° C. […]

Where [4] appears, read: 50 pg per mouse, i.n., 1 h pre-infection.
[5] abbreviates: 50 pg per mouse, i.n., 3 d post-infection.
Where [6] appears, read: 50 pg per mouse, i.p. then i.p., 1 h and 3 d post-infection.
Setting [7] is: 500 pg per mouse, i.n., 1 h and 3 d post-infection.
Where [8] appears, read: 500 pg per mouse, i.n., 1 h pre-infection.

B1: rCSTC: human recombinant cystatin C (CST3), cysteine proteinase inhibitor; purchased from R&D Systems (protein, UniProt P01034 27-146, looked up)
Cystatin-C: SSPGKPPRLVGGPMDASVEEEGVRRALDFAVGEYNKASNDMYHSRALQVVRARKQIVAGVNYFLDVELGRTTCTKTQPNLDNCPFHDQPHLKRKAFCSFQIYAVPWQGTMTLSKSTCQDA
On to B1, for which the gut microbiome result in the assay with gut microbiome is given as “preserved the gut microbiome”. The “cytokine secretion from infected MDM” value in assay [1] is “restrained cytokine secretion”. Besides, the “increased % survival of Kp LD90 mice” value was “increased survival and 20%” in the assay with NDM-1 Kp [2] (setting [4]); 10% in the assay with NDM-1 Kp [2] (setting [5]); 5% in the assay on NDM-1 Kp [2] (setting [6]); 10% with NDM-1 Kp [2] (setting [7]); 10% in the assay on NDM-1 Kp [2] (setting [8]). The “increased survival of Kp infected mice” value with NDM-1 Kp [2] came out at 15%. For the same molecule, the “systemic MIP-1 and IL-8 secretion” value in the assay on MIP-1 and IL-8 was “decrease in systemic MIP-1 and IL-8 secretion”. Also, the “replication of NDM-1-producing Kp” value in the assay with NDM-1 Kp [3] is on record as “inhibited the replication”.

B2: rCST9: human recombinant cystatin 9, cysteine proteinase inhibitor; purchased from American Research Products, Inc. (protein, UniProt Q5W186 29-159, looked up)
Cystatin-9: WCSEEEMGGNNKIVQDPMFLATVEFALNTFNVQSKEEHAYRLLRVLSSWREDSMDRKWRGKMVFSMNLQLRQTVCRKFEDDIDNCPFQESLELNNVRQGISFPQVHSCGCCMGCGVGTGAADKAIPRDKGK
B2: in the assay with gut microbiome, the gut microbiome result is “preserved the gut microbiome”. The “cytokine secretion from infected MDM” value in assay [1] is “restrained cytokine secretion”. Also, the “increased % survival of Kp LD90 mice” value in the assay with NDM-1 Kp [2] (setting [4]) is “increased survival and 10%”; in the assay on NDM-1 Kp [2] (setting [5]) it was 10%; in the assay with NDM-1 Kp [2] (setting [6]) it was 5%; with NDM-1 Kp [2] (setting [7]), 10%; in the assay on NDM-1 Kp [2] (setting [8]), 10%. Besides, the “increased survival of Kp infected mice” value with NDM-1 Kp [2] came to 15%. Further, the “systemic MIP-1 and IL-8 secretion” value in the assay on MIP-1 and IL-8 is “decrease in systemic MIP-1 and IL-8 secretion”. In the assay on NDM-1 Kp [3], the “replication of NDM-1-producing Kp” value is listed as “inhibited the replication”.
